Assay results published in patent US20210206875A1, “ERBB-2 TARGETING AGENT AND A BISPECIFIC ANTIBODY WITH ANTIGEN-BINDING SITES THAT BIND AN EPITOPE ON AN EXTRACELLULAR PART OF ERB-2 AND ERBB-3, FOR TREATMENT OF AN INDIVIDUAL WITH AN ERBB-2, ERBB-2/ERBB-3 POSITIVE TUMOUR” (Merus N.V., priority 2017, published 2021).

Biological target: human ErbB-3 (HER3), on cells (human) (UniProt P21860)
Test: cell-based or functional assay

BxPC3 % Inhibition: -7%
MCF-7 IC50 (pM), HRG dependent proliferation: 504 pM
B1: #Ab6 (antibody, from another filing, IgG1, V domains shown)
VH: EVQLLESGGGLVQPGGSLRLSCAASGFTFSHYVMAWVRQAPGKGLEWVSSISSSGGWTLYADSVKGRFTISRDNSKNTLYLQMNSLRAEDTAVYYCTRGLKMATIFDYWGQGTLVTVSS
VL: QSALTQPASVSGSPGQSITISCTGTSSDVGSYNVVSWYQQHPGKAPKLIIYEVSQRPSGVSNRFSGSKSGNTASLTISGLQTEDEADYYCCSYAGSSIFVIFGGGTKVTVL
